Assay results from the DeepSol protein solubility set.

assay: soluble on expression in E. coli; label from the status in PepcDB or PDB records

Soluble on expression in E. coli, not soluble:
MGSDKIHHHHHHMSIAVTTTDPTNTGVSTTSSSSLTGSNAADLQSSFLTLLVAQLKNQDPTNPMENNELTSQLAQISTVSGIEKLNTTLGSISGQIDNSQSLQASNLIGHGVMIPGTTVLAGTGSEEGAVTTTTPFGVELQQAADKVTATITDKNGAVVRTIDIGELTAGVHSFTWDGTLTDGSTAPNGSYNVAISASNGGTQLVAQPLQFALVQGVIRGNSGNTLDLGTYGTTTLDEVRQII
MGSDKIHHHHHHMSIKLDHRLLYLRVIEKIKSDIDDGVYKEGEKLPSEFELSKQLGVSRATLREALRILEDENIVIRKHGVGTFINARPPFTSGIEELYSVTEMIARAGMIPTSEVLSSEMVQPTERDRERFQLGPDELVYRIERIRLAGDVPVVYCVDKIPSHYIKNEEQFTSSTSLFDALEKELGRRVTHAVTHIEPRIDPKIAEQLHTDQPLLVLRQTHYDELDRSVLYSANYFRADKFDFHVIRKRV
MGSDKIHHHHHHMSILNVEHLSHGFGDRAIFEDVSFRLLKGEHIGLVGANGEGKSTFMNIITGRLMPDEGKIEWAKKVRVGYLDQHTALEKGMTIGSVLSSAFDFLYDMENEMNDIYARLGDVDEDEMNKLMEEAGTIQDMLTMHDFYMIDAKVEEVARALGLLDLGLDKDVTDLSGGQRTKVLMGKLLLEKPDILLLDEPTNYLDVEHIEWLKRYLNDYENAFILISHDIPFLNSVVNLIYHMDNKKLDRYVGDYDKFMEVYEMKKAQLEAAYNKQQQEIKELKDFVARNKARVATRNMAMSRQKKLDKMDVIELAAEKPKPEFNFKTARTPGRYIFQTNGLVIGYDDPLSSALDLEMERGQKIVLTGANGIGKTTLLKSILGLIKPLSGSVTLGDYLEIGYFEQEMDQSVTTTCIEEIWNEFPAFSQYEVRSALAKCGLTTKHIESQVRVLSGGEQAKVRLCKLINRETNILLLDEPTNHLDVDAKDELKRALKEYKGSILMVCHEPDFYDGLATDVWDCSKWTTRL
MGSDKIHHHHHHMSIMNSLLQQKETVVKGWLTYYVSVDDPYVFALKDDHRLMDETGFVLENLFIGMTEDLAKMNTFARELGKAQFITSLGISRILFHIRLLEEFLLDYASEINAECNNYRELYLFSIKLHQVFSSFTQHLIEGYTLATEQLVQQKENQIIKSSTKLIWLAEKVFLLPLIGKITDERAKQITETALFETCEQPVNYLIIDLSGVQFDSANIGEYIEHFFSSLKLVGVTPIITGMQPETAKIMVQANLTEQKGIKTFATLRQATKSLIKEKEARNAIK
MGSDKIHHHHHHMSINVLIVDDSLSACRVLSRHFLLLDVDKVEFCRDARSAIRTLSKYSDDYQIVVVDLHMPEVDGIEFLMRLSKMEFKGGIIIASGMESRIVEAASQLVEASKLRLLGALMKPVTTEQLRVCVERYRLMAFQGNGVRHKGLMSIDEIRRAINSNKIIPYYQAQVDIASGKIKGFEVLCRLQQGTRLQLITPDKFIDVAECNNALNSLTTKLLNNAIPEWALISQFESCKQCHLSINLTPKQLNQSGWHTRLMQYCEQNLLSPSRLTVEITENQVLDKQRQHSTISQLRMNRIGVAIDDFGTGYTNLSQLCTLPISELKLDRSLVHGIHKDPVSQTILKSMQAISGKLGIHLVAEGVEDIHDLNYLEQIEDISLQGYLICRPKPYSELVRWLKARERLVQA
MGSDKIHHHHHHMSKAMISRENYLQQLIQFKDTDFIKVISGVRRSGKSVLLMQYRDYLQQQGIASENILYLNFESFEYQWVKDAQDFQQLIQEKMPSSQEKIYFLIDEIQFVEGWQKIVNALRVSFNTDIVITGSNANLLSGELATLLSGRYVEIKIYPLSFKEFLHAKNVDSQSRLVDKLYSEYEKYGGFPSVVMADEPLKETILSGIFDSIVLNDIAHRAGVKDTHILKSVILFLADNVGQLVNPSKISNTLTSERVPTSNHTISKYLDLLENAFLFYKAKQYDIRGKGYLKTNAKYFIVDNGLRRHAIGKKGANYANRLENIVFIELLRRGYSVDVGKLDSKEIDFIARKADEILYVQVAFEIPENTHETDNLLHIKDNYKKILITGKYYEQTEIDGIEVIYVVDWLLQ
MGSDKIHHHHHHMSKAYSSNLTQDQWELLEPLIPVGKTGGRPRVVEMWQVINAIFYVLTQGCTWRNLPGDLPNWQTVYTYFRNWRKDGTWVSIHDQLRDWERVNNERAVSPTEAIIDSQSVKTAAMVTQQVGYDAGKKVKGRKRFLTVDTLGLVLPVLVSAASVDERSGGKLLLQKVKQMGDKVSRLNLIWVDGGYDGNPFMQWVMDFYRWVVQVVLRPRERKGFVLLPKRWVVERTFGWLTGCRRLNKDYELLPETAENFIYLAMIRIMVRRLA
MGSDKIHHHHHHMSKHALKLIPSSTEHADVPNDCKNCGAYHLCMSLWLKTADSSLLERVVKKKQVFKRGEVLYRMGQPLEYIYVIRGGSVKTCVSTEDGQVQVMGFHAAGELLGLNAISNREHKCEARAMGVTSVCEVSVERFEELAKKDPAIQYEILKIMSAEIHHGQELLLLLGKHNAEERIAIFLLNLSRQFEQRHCSATEFTLCMSRSDIGNYLGIAEETVCRIFARFQDDGLISSEYRNVKLKDIKRLEQIANQRPQRSLRQTNVASLYF
MGSDKIHHHHHHMSKKQFLDQLWARMAQKGDFPTLQYCIDNVFKTLNSDLSVGEMASTVLSDFSLSQKVIRLANSAMYRSFGGEVTTVSRAIMVLGVDTITHLTLGVQVLDFFQGVAPNRPQAARALKQAIMAGEITRALNDARGILGGEEGVVCTLMHHVSRLLVIFYFPDEWDRIMALSADGAMSENDACREVIDISLDDLAKAAAFRWRLPALIADGMLGRELHEETVLETHADWLGAVASLSSDAAASILAEQPEEVVLEPLLTHAQKLGLEPSHVNVAIQQAGTLKASMARSEAPDTGVGSLPDDGGKPADTLTRLQQALAEIRQEGAGMTVSQLAPLVLESAMRALNFSHCFLMLLHPTNKRFGARLGFGEGMRDKLEKLSFEEGFVPDVFHFAMIAPKPLLIEDLRDKAVSHRVPRWYRDAMPDTRSVLLIPVKVRNRCVAMICGDWGATRIAGGLTDGELIAAGDLAGEIATAVLRSAPQR
MGSDKIHHHHHHMSKLAAFLGRAIPTHQQKQSSHLGDRTLYVGASDIAGCPRKAALGKQNPTGHDIKTLLRFSRGHAAQAMYADFFRTGGALFEEEVEVRHPAIPEIRCHIDFLFYANRQTKRLHIVEMKSTDGIPDEPYASWVDQLHVQMGLLQLTLDPAVEIGGSILVVDLNAGSYHEFNSYTPNRLVFDQLVEKGKHILAAARGECAPRTEPGILCGYCPFRTGCPSHAVALDLPREILDTGRKYLELNEQKKALENRLDVLKNDILTFADGTFKGASDGILINVTSVADSTTIDSYKLKRNYPDIYDQVTKPKSGYVKLEIKPFTPLAAQAA
MGSDKIHHHHHHMSLITDLPAIFDQFSEARQKGFLTVMDLKEQNVPLVGTYCTFMPQEIAMAAGAVVVSLCSTSDETIEEAEKDLPRNLCPLIKSSYGFGKTDKCPYFYFSDLVVGETTCDGKKKMYEYMAEFKAVHVMQLPNSASDAASRALWKTEILRLQQVIEARFGTPISEAALREAIVLKNRERRALAHFYRLGQLNPPALSGGDILKVVYGATFRFDKTALIDELHAMAERIHQEWQQGKRLEPRPRILITGCPIGGAAEKVVRAIEENGGWVVGYENCTGAKATERCVAEEGDVYDALTDKYLAIGCSCISPNDQRLQLLSQMVEEYQADGVIDVILQACHTYAVESLAIKRHLRQQHDLPYMAIETDYSTADLGQLSTRVAAFIEML
MGSDKIHHHHHHMSLRKNLALGSSTVLLTAVLSGCVSLDERSTDTSTENVTTVTATLTSTAAAEPTTRTTVQSATEASTTAPVQCNLDPRTSDFGPYLAQSRTPVGELAGSADSVVQVPDWFYHFQMGDNGYDSCSKLSYVVLNGSNGDAERSTGTGAAIADVVVLFIDGHMVARPAPFEMKTVESVTRVSDSEIQVVYGHAGRSTAEGVTDYFTFNFFVDNGVLSGRGDLPEHIDTHMRLYLL
MGSDKIHHHHHHMSNIYDAVVVGSGPNGLAAAITLQRKGFAVLVLEAKDTIGGGLRTKELTLPGFKHDVCSAIHPMAVASPFFADIPLDKFGLRFTHAPIAAAHPFDHGGAAILSRSLKDTIALLGKDADNYKRLIEPVIESWPDIAADAMGPLRFPKHPLKMAAFGLNAIRSADCISKRFETEEAKGLWAGMAAHSIQPLTNWASAAIGLVLSAVGHLHGWPIPIGGSQAIADALGSYFISLGGTIQTNVEVTSLNQLPAARAVLFDVTPKQLLKITGDEFSGLYKKQLTNYRYGMGVFKVDWALSEPVPFTSDHCRQAGTVHLGNTFNEIALSEQETSSGKHPEKPFVLFAQQSKFDITRAPQGKHTAWAYCHVPNGSATDMTAAIENQLERFAPGFKDTILAKNTMNTVEIQAYNPNYIGGDINGGIIDIRQLYTRPAVKISPYRTPKKGIYICSSSTPPGGGVHGMCGFHAAQAVIQDLKKQYK
MGSDKIHHHHHHMSNQYHNFNSQIESHILFYGHQKCKPDEYFDGTNLRKNDILYYVLDGKGTFNSSGHHVAKLAKGDLFLVPRSRTCYFEADHDNPWEYFWIGLSGAGTNEMIKASNLPNKNFLRQIQKTEFFETLKELYSTLNEDSSLLNNVKIASLTYQLFYHLIDEFPNHPSIRKTPKIDQYQIAIDYLNKNYTDPTCNIVELCNRLGVSRSFLYSLFRKNTKISPQKYLMQLRMEAAKKELLNTTHNLKEIARKVGYGDEFTFSKAFKRYSGVSPNVFRGK
MGSDKIHHHHHHMSPLAYSVANVNLESSHPTGALSVNLLSGRDVRRWDDFVSCCREATFFHRAGWQTVIERAFGHKTWFLYAECEGEIQGVLPLAEINSRLFGHSLSSLPFCVYGGIAADSQTVRDALDRSAQKLAQELQVDYLEYRNLKPHHADWHGKDLYVTFRKEIASEIEQNMSAIPRKQRAMVRKGIKAGLESVVDQDIERFFSAYSASVHRLGTPVFSRKYFRLLKEVFAEDCELMIIVKDNRTISAVMSFYFRDEVLPYYGGGTGEAREVAGNDFMYWELMRRACEKGCKVFDFGRSKRGSGSFDFKKNWGFEPQPLHYEYQLHQAKEVPDHNPLNPRYQIFIKAWQKLPLGLANLVGPHIVRNLG
MGSDKIHHHHHHMSQDDLLSQEEIDALLKGVSGDEDNAQDERASREGKVRPFDPAKQHRIIRERLHALDIINERFARQFRVALFNLMRRSADITVESVRYQSYSEFSRNLPVPTNLNLITMKPLRGSALVVFPPSLVFMVVDNLFGGDGRFLTKSEGREFTRTEQRIIHRMLKMALEGYSESWKSVYPLDIEYTRSELQVKFANITNSPNEIVVNSTFHVEVGNLSSEFNICIPYSMIEPIRDILASPLHDTHPDEEQQWEARMAHEIRHSSVELTADFVDIPLRLRDVTQLSVGDIIPIELPEAVNVSVDGIPVMTCDYGSQKSQRALRVRHLIEHGSSQVAAKDPKDD
MGSDKIHHHHHHMSQFIDILRQHLADFQWRYAHQITPEIQDAIHAMLSCRCNTARVSCCEQQREFPLSCGHRSCPQCQHGTTCDWLSKQQAKLLPVNYFMVTFTLPFELRAIAKSQPDLLYHALFTVAASVLKDFAVRSPKLSGDIGFTGVLHTYSRRRDYHPHLHCIIPAGSYHPGKRQWRKCQTHYLFNAFNLAKVWRARLLTYLSDRLQLKLPH
MGSDKIHHHHHHMSQHVLLNSVDHKDIKIITERSAKYGDNVWFSVTFPAEFRSVQAHYPIFFQKDQTTGQFFAVALYGFQNNENLFLNNGTWQASYIPLTQRRQPFLIGQQSVREDGVERKQRVIHIDIASPRVSTTEGEALFHPYGGNTQYLDDIGDMLEGIHHGLIDSKHFIDLLIEHQLLESFTLDVKLDNGQQHQMMGFYTINEDTLASLSAEVLAQLHIKDYLKAIYMALASQARVRDLLNLKNAQG
